Assay results as given in the supplement of paper PMC10567573.

B1: INTS4 (parent)
chain: TIIEPAGESDNPLRFTSGLVVALD

Variants of: B1
Test: protein stability index of a GFP-peptide fusion (GPS, HEK-293T) (PSI 1-6); higher = more stable
Details: c terminus: a fixed tail appended
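Also: lentivirally expressed fusions sorted by FACS into six bins by GFP to DsRed ratio, PSI derived from sequencing read proportions per bin multiplied by bin number.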

Which protein stability index does the source give for TIINPAGESDNPLRFTSGLVVALD here?
Its protein stability index is 2.09.

For TIIMPAGESDNPLRFTSGLVVALD, which protein stability index is on record?
Its protein stability index is 2.1.

With TIIGPAGESDNPLRFTSGLVVALD as the variant, how does the protein stability index read?
The protein stability index was 2.25.

For TIISPAGESDNPLRFTSGLVVALD, which protein stability index is on record?
The protein stability index was 2.89.

For TIILPAGESDNPLRFTSGLVVALD, which protein stability index is on record?
Its protein stability index is 2.33.

For TIIAPAGESDNPLRFTSGLVVALD, which protein stability index is on record?
The protein stability index was 2.76.

For TIIRPAGESDNPLRFTSGLVVALD, which protein stability index is on record?
Its protein stability index is 2.94.

For TIITPAGESDNPLRFTSGLVVALD, which protein stability index is on record?
The protein stability index was 2.34.

For TIICPAGESDNPLRFTSGLVVALD, which protein stability index is on record?
Its protein stability index is 2.05.

With TIIWPAGESDNPLRFTSGLVVALD as the variant, how does the protein stability index read?
Its protein stability index is 1.56.

For TIIDPAGESDNPLRFTSGLVVALD, which protein stability index is on record?
The protein stability index was 3.09.

With TIIQPAGESDNPLRFTSGLVVALD as the variant, how does the protein stability index read?
Its protein stability index is 2.84.

For TIIFPAGESDNPLRFTSGLVVALD, which protein stability index is on record?
The protein stability index was 1.81.

With TIIYPAGESDNPLRFTSGLVVALD as the variant, how does the protein stability index read?
Its protein stability index is 1.51.

With TIIIPAGESDNPLRFTSGLVVALD as the variant, how does the protein stability index read?
The protein stability index was 1.72.

Which protein stability index does the source give for TIIKPAGESDNPLRFTSGLVVALD here?
The protein stability index was 2.19.

For TIIHPAGESDNPLRFTSGLVVALD, which protein stability index is on record?
The protein stability index was 2.55.

Which protein stability index does the source give for TIIPPAGESDNPLRFTSGLVVALD here?
The protein stability index was 3.15.

With TIIVPAGESDNPLRFTSGLVVALD as the variant, how does the protein stability index read?
Its protein stability index is 1.98.

Which protein stability index does the source give for TPIEPAGESDNPLRFTSGLVVALD here?
Its protein stability index is 3.9.

With TGIEPAGESDNPLRFTSGLVVALD as the variant, how does the protein stability index read?
The protein stability index was 3.51.

With TMIEPAGESDNPLRFTSGLVVALD as the variant, how does the protein stability index read?
The protein stability index was 3.38.

For TSIEPAGESDNPLRFTSGLVVALD, which protein stability index is on record?
Its protein stability index is 3.48.

Which protein stability index does the source give for TEIEPAGESDNPLRFTSGLVVALD here?
The protein stability index was 3.86.

With TDIEPAGESDNPLRFTSGLVVALD as the variant, how does the protein stability index read?
Its protein stability index is 4.21.

With TQIEPAGESDNPLRFTSGLVVALD as the variant, how does the protein stability index read?
The protein stability index was 3.22.

Which protein stability index does the source give for TKIEPAGESDNPLRFTSGLVVALD here?
Its protein stability index is 2.89.

For TVIEPAGESDNPLRFTSGLVVALD, which protein stability index is on record?
The protein stability index was 3.15.

For TTIEPAGESDNPLRFTSGLVVALD, which protein stability index is on record?
The protein stability index was 3.21.

Which protein stability index does the source give for THIEPAGESDNPLRFTSGLVVALD here?
The protein stability index was 3.18.

Which protein stability index does the source give for TCIEPAGESDNPLRFTSGLVVALD here?
Its protein stability index is 2.84.

Which protein stability index does the source give for TRIEPAGESDNPLRFTSGLVVALD here?
Its protein stability index is 3.67.

With TYIEPAGESDNPLRFTSGLVVALD as the variant, how does the protein stability index read?
The protein stability index was 2.32.

With TLIEPAGESDNPLRFTSGLVVALD as the variant, how does the protein stability index read?
The protein stability index was 3.48.

With TWIEPAGESDNPLRFTSGLVVALD as the variant, how does the protein stability index read?
Its protein stability index is 2.38.

For TNIEPAGESDNPLRFTSGLVVALD, which protein stability index is on record?
The protein stability index was 3.9.

With TFIEPAGESDNPLRFTSGLVVALD as the variant, how does the protein stability index read?
The protein stability index was 3.8.

Which protein stability index does the source give for TAIEPAGESDNPLRFTSGLVVALD here?
The protein stability index was 3.71.

For TIIERAGESDNPLRFTSGLVVALD, which protein stability index is on record?
The protein stability index was 2.51.

With TIIESAGESDNPLRFTSGLVVALD as the variant, how does the protein stability index read?
The protein stability index was 2.33.

For TIIECAGESDNPLRFTSGLVVALD, which protein stability index is on record?
Its protein stability index is 2.56.

With TIIEIAGESDNPLRFTSGLVVALD as the variant, how does the protein stability index read?
Its protein stability index is 1.5.

Which protein stability index does the source give for TIIEWAGESDNPLRFTSGLVVALD here?
Its protein stability index is 2.53.

With TIIEDAGESDNPLRFTSGLVVALD as the variant, how does the protein stability index read?
Its protein stability index is 3.36.

Which protein stability index does the source give for TIIEAAGESDNPLRFTSGLVVALD here?
The protein stability index was 2.37.

With TIIEGAGESDNPLRFTSGLVVALD as the variant, how does the protein stability index read?
The protein stability index was 2.78.

With TIIEVAGESDNPLRFTSGLVVALD as the variant, how does the protein stability index read?
The protein stability index was 2.54.

With TIIENAGESDNPLRFTSGLVVALD as the variant, how does the protein stability index read?
Its protein stability index is 2.91.

With TIIEHAGESDNPLRFTSGLVVALD as the variant, how does the protein stability index read?
Its protein stability index is 2.83.

Which protein stability index does the source give for TIIEFAGESDNPLRFTSGLVVALD here?
The protein stability index was 1.53.

Which protein stability index does the source give for TIIEYAGESDNPLRFTSGLVVALD here?
The protein stability index was 1.93.

For TIIEQAGESDNPLRFTSGLVVALD, which protein stability index is on record?
Its protein stability index is 2.49.

Which protein stability index does the source give for TIIEKAGESDNPLRFTSGLVVALD here?
Its protein stability index is 2.79.

Which protein stability index does the source give for TIIELAGESDNPLRFTSGLVVALD here?
The protein stability index was 2.76.

For TIIEEAGESDNPLRFTSGLVVALD, which protein stability index is on record?
The protein stability index was 3.31.

Which protein stability index does the source give for TIIETAGESDNPLRFTSGLVVALD here?
The protein stability index was 2.77.

Which protein stability index does the source give for TIIEMAGESDNPLRFTSGLVVALD here?
The protein stability index was 1.76.

With CIIEPAGESDNPLRFTSGLVVALD as the variant, how does the protein stability index read?
Its protein stability index is 2.38.

For FIIEPAGESDNPLRFTSGLVVALD, which protein stability index is on record?
The protein stability index was 1.83.

With SIIEPAGESDNPLRFTSGLVVALD as the variant, how does the protein stability index read?
Its protein stability index is 3.41.

For IIIEPAGESDNPLRFTSGLVVALD, which protein stability index is on record?
Its protein stability index is 2.2.

Which protein stability index does the source give for HIIEPAGESDNPLRFTSGLVVALD here?
Its protein stability index is 3.23.

Which protein stability index does the source give for YIIEPAGESDNPLRFTSGLVVALD here?
The protein stability index was 2.08.

Which protein stability index does the source give for KIIEPAGESDNPLRFTSGLVVALD here?
The protein stability index was 2.68.

Which protein stability index does the source give for RIIEPAGESDNPLRFTSGLVVALD here?
The protein stability index was 2.32.

Which protein stability index does the source give for AIIEPAGESDNPLRFTSGLVVALD here?
The protein stability index was 2.45.

With MIIEPAGESDNPLRFTSGLVVALD as the variant, how does the protein stability index read?
Its protein stability index is 1.68.

With NIIEPAGESDNPLRFTSGLVVALD as the variant, how does the protein stability index read?
The protein stability index was 3.36.

With WIIEPAGESDNPLRFTSGLVVALD as the variant, how does the protein stability index read?
The protein stability index was 2.23.

Which protein stability index does the source give for DIIEPAGESDNPLRFTSGLVVALD here?
The protein stability index was 3.21.

With EIIEPAGESDNPLRFTSGLVVALD as the variant, how does the protein stability index read?
Its protein stability index is 2.68.

For PIIEPAGESDNPLRFTSGLVVALD, which protein stability index is on record?
Its protein stability index is 3.06.

For LIIEPAGESDNPLRFTSGLVVALD, which protein stability index is on record?
Its protein stability index is 1.83.

For QIIEPAGESDNPLRFTSGLVVALD, which protein stability index is on record?
The protein stability index was 2.96.

For GIIEPAGESDNPLRFTSGLVVALD, which protein stability index is on record?
Its protein stability index is 3.82.

With VIIEPAGESDNPLRFTSGLVVALD as the variant, how does the protein stability index read?
The protein stability index was 2.23.

With TIREPAGESDNPLRFTSGLVVALD as the variant, how does the protein stability index read?
The protein stability index was 3.06.

With TIQEPAGESDNPLRFTSGLVVALD as the variant, how does the protein stability index read?
The protein stability index was 3.45.

For TIYEPAGESDNPLRFTSGLVVALD, which protein stability index is on record?
The protein stability index was 3.29.

For TIVEPAGESDNPLRFTSGLVVALD, which protein stability index is on record?
Its protein stability index is 4.2.

For TICEPAGESDNPLRFTSGLVVALD, which protein stability index is on record?
Its protein stability index is 3.2.

Which protein stability index does the source give for TIWEPAGESDNPLRFTSGLVVALD here?
The protein stability index was 2.88.

For TIAEPAGESDNPLRFTSGLVVALD, which protein stability index is on record?
The protein stability index was 4.03.

Which protein stability index does the source give for TIFEPAGESDNPLRFTSGLVVALD here?
Its protein stability index is 2.38.

Which protein stability index does the source give for TINEPAGESDNPLRFTSGLVVALD here?
The protein stability index was 3.51.

For TILEPAGESDNPLRFTSGLVVALD, which protein stability index is on record?
The protein stability index was 2.76.

Which protein stability index does the source give for TITEPAGESDNPLRFTSGLVVALD here?
The protein stability index was 3.4.

With TIPEPAGESDNPLRFTSGLVVALD as the variant, how does the protein stability index read?
Its protein stability index is 3.42.

For TISEPAGESDNPLRFTSGLVVALD, which protein stability index is on record?
The protein stability index was 4.07.

For TIMEPAGESDNPLRFTSGLVVALD, which protein stability index is on record?
Its protein stability index is 3.23.

Which protein stability index does the source give for TIGEPAGESDNPLRFTSGLVVALD here?
The protein stability index was 3.7.

For TIHEPAGESDNPLRFTSGLVVALD, which protein stability index is on record?
Its protein stability index is 3.9.

Which protein stability index does the source give for TIDEPAGESDNPLRFTSGLVVALD here?
Its protein stability index is 4.07.

Which protein stability index does the source give for TIKEPAGESDNPLRFTSGLVVALD here?
Its protein stability index is 3.85.
